Laboratory results taken from publication PMC11555231 (2024).
Like-named read-outs stand apart in the source and are kept apart here. Blank lines part the entries; values can stand above or below the binder they belong to. Ends that are not written are not given here.

Legend:
[1] = target: T1, N-terminally biotinylated recombinant human PADI4 (bio-His-PADI4) (human, UniProt Q9UM07 1-663, biotin on the N-terminal Avi-Tag (BirA)); assay: SPR
[2] = target: T1, N-terminally biotinylated recombinant …; assay: SPR; remark: listed apart in the source

T1 sequence (Q9UM07 whole entry): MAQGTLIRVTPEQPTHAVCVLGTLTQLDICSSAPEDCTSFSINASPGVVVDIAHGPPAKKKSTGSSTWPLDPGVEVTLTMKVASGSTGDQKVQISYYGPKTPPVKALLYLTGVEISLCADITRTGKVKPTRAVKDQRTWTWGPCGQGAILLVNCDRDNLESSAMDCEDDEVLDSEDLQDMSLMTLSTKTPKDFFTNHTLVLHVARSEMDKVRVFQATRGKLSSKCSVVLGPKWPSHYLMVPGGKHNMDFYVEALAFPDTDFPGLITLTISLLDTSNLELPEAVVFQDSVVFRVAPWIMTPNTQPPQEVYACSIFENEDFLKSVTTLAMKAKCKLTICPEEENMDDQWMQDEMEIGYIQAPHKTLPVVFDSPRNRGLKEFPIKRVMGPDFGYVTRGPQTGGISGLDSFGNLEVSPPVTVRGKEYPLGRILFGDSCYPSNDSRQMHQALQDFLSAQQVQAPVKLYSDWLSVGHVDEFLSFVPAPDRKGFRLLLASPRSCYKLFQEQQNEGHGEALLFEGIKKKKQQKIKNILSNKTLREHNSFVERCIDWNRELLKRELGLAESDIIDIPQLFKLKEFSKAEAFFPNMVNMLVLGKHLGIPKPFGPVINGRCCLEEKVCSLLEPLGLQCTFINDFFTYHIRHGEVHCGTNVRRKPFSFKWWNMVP

B1: PADI4_11 L12A (peptide)
chain: YESCRYRQVLQA
- Kd [1]: 5.1 µM

B2: PADI3_H4R_K10_I (peptide)
peptide: YRDRHYRHPIYCG
modifications: D-tyrosine at position 1; N-terminus joined to the side chain of Cys12 by a thioether bond (cyclic); C-terminal amide
- Kd [2]: 0.007 µM

B3: PADI4_11 Y6A (peptide)
chain: YESCRARQVLQL
- Kd [1]: 13 µM

B4: PADI4_11 V9A (peptide)
chain: YESCRYRQALQL
- Kd [1]: 14 µM

B6: PADI4_3_Y6H (peptide)
chain: YRDHHHRHPKYCG
- Kd [2]: 0.03 µM

B7: PADI4_11 Y1A (peptide)
chain: AESCRYRQVLQL
- Kd [1]: 11.1 µM

B8: PADI4_3 variant with R7 replaced by asparagine (peptide)
chain: YRDHHYNHPKYCG
modifications: as PADI4_3: D-tyrosine at position 1; thioether cyclisation between the N-terminus and the cysteine side chain; C-terminal amide
- Kd [2]: 0.041 µM

B9: 11B (peptide)
chain: YESCRY
- Kd [1]: > 2 µM

B10: PADI4_11 Q11A (peptide)
chain: YESCRYRQVLAL
- Kd [1]: 0.31 µM

B11: PADI4_11 S3A (peptide)
chain: YEACRYRQVLQL
- Kd [1]: 0.16 µM

B14: PADI4_3_K10I (peptide)
chain: YRDHHYRHPIYCG
- Kd [2]: 0.004 µM

B16: PADI4_3 variant with R7 replaced by alanine (peptide)
chain: YRDHHYAHPKYCG
modifications: as PADI4_3: D-tyrosine at position 1; thioether cyclisation between the N-terminus and the cysteine side chain; C-terminal amide
- Kd [2]: 0.008 µM

B17: PADI4_11 (peptide)
peptide: YESCRYRQVLQL
modifications: not fully specified; L-tyrosine at position 1; cyclised via a thioether bond between the N-terminus (chloroacetylated) and the side chain of C4; C-terminal amide
- Kd [1]: 0.5 µM

B19: PADI4_3 variant with R7 replaced by tryptophan (peptide)
chain: YRDHHYWHPKYCG
modifications: as PADI4_3: D-tyrosine at position 1; thioether cyclisation between the N-terminus and the cysteine side chain; C-terminal amide
- Kd [2]: 0.006 µM

B21: PADI4_3_dY1(OMe)Y (peptide)
chain: YRDHHYRHPKYCG
- Kd [2]: 0.023 µM

B23: PADI4_11 Q8A (peptide)
chain: YESCRYRAVLQL
- Kd [1]: 0.5 µM

B24: PADI4_11 L10A (peptide)
chain: YESCRYRQVAQL
- Kd [1]: 0.3 µM

B26: PADI4_3_K10V (peptide)
chain: YRDHHYRHPVYCG
- Kd [2]: 0.005 µM

Other lines, results leading:

- Kd [1]: 20 µM
B5: PADI4_11 analogue with E2 replaced by glutamine (peptide)
chain: YQSCRYRQVLQL
modifications: as PADI4_11: thioether cyclisation between the N-terminus and the side chain of C4; C-terminal amide

- Kd [1]: 118 µM
B12: PADI4_11 analogue with C4 replaced by alanine (peptide)
chain: YESARYRQVLQL-NH2

- Kd [1]: 41 µM
B13: PADI4_11 analogue with E2 replaced by aspartic acid (peptide)
chain: YDSCRYRQVLQL
modifications: as PADI4_11: thioether cyclisation between the N-terminus and the side chain of C4; C-terminal amide

- Kd [1]: 4 µM
B15: PADI4_11 analogue with R7 replaced by alanine (peptide)
chain: YESCRYAQVLQL
modifications: as PADI4_11: thioether cyclisation between the N-terminus and the side chain of C4; C-terminal amide

- Kd [1]: 34 µM
B18: PADI4_11 analogue with R5 replaced by alanine (peptide)
chain: YESCAYRQVLQL
modifications: as PADI4_11: thioether cyclisation between the N-terminus and the side chain of C4; C-terminal amide

- Kd [1]: 114 µM
B20: PADI4_11 analogue with E2 replaced by alanine (peptide)
chain: YASCRYRQVLQL
modifications: as PADI4_11: thioether cyclisation between the N-terminus and the side chain of C4; C-terminal amide

- Kd [1]: 1.4 µM
B22: PADI4_11 analogue with R5 replaced by lysine (peptide)
chain: YESCKYRQVLQL
modifications: as PADI4_11: thioether cyclisation between the N-terminus and the side chain of C4; C-terminal amide

- Kd [1]: 0.7 µM
B25: PADI4_11 analogue with R7 replaced by lysine (peptide)
chain: YESCRYKQVLQL
modifications: as PADI4_11: thioether cyclisation between the N-terminus and the side chain of C4; C-terminal amide
